Measurements as given in US20050089538A1 (IMMUNOMEDICS, published 2005).

Legend:
carcinoembryonic antigen [1] = biological target: T1, carcinoembryonic antigen (human, UniProt P06731 35-685, limits assumed); assay: MN-14 blocking assay on CEA, competitor HRP-labeled MN-14 (FIG. 9)
T1 construct: CEA sample fixed to a solid support, directly or through a capture antibody such as MN-15; also called CEA
T1 sequence (looked up): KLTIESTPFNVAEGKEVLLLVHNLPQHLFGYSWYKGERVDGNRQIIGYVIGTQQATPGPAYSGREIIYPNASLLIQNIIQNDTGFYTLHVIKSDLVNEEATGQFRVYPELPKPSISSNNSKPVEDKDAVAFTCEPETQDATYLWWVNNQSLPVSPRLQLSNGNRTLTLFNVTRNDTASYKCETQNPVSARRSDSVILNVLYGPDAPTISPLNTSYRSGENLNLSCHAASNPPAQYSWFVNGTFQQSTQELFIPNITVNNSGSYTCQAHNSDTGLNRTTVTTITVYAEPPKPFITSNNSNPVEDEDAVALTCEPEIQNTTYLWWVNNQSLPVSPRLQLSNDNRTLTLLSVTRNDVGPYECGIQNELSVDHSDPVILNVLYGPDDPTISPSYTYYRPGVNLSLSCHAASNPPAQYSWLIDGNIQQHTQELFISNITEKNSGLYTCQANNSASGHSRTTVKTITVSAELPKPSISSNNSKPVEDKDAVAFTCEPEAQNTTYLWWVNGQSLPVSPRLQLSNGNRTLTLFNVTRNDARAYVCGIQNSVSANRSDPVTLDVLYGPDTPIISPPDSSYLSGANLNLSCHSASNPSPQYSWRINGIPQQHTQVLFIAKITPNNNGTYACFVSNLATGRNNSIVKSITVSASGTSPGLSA
Description: (§1) The humanized KLHuVH varients, such as antibody KLHuVHAIGA/HuVK, were purified and tested in a blocking assay carried out as follows. Antibodies were added at the indicated concentrations together with HRP-labeled MN-14 to a final volume of 0.1 ml. Following 30 mins. of incubation at 37₁C, and washing to remove unbound antibodies, the relative affinities of the antibodies were determined from the remaining bound peroxidase activity. A shown by the assay data of FIG. 9, the activity of the “reshaped” (i.e., CDR-engrafted on FR) humanized antibody was similar to that of chimeric and murine positive controls.

carcinoembryonic antigen [2] = biological target: T1, carcinoembryonic antigen; assay: MN-14 blocking assay on CEA, unlabelled murine MN-14 against HRP-labeled MN-14 (FIG. 9)
Description: as §1

B1: chimeric MN-14 antibody (MN-14 mouse VH and VK joined to human IgG1 and human kappa constant regions) (antibody, V domains shown)
VH: EVKLLESGGGLVQSGGSLKLSCAASGFDFTTYWMSWVRQAPGKGLEWIGEIHPDSSTINYAPSLKDKFIVSRDNAKNTLYLQMSKVRSEDTALYYCASLYFGFPWFAYWGQGTPVTVSA
VL: EIQLTQSHKMMSTSVGDRVSITCKASQDVGTSVAWYQQRPGQSPKLLIYWTSTRHTGVPDRFTGSVSGTDFTLTITNVQSEDLADYFCQQYSLYRSFGGGTKLEIK
notes: Human IgG1 constant region (Takahashi et al.) and human kappa constant region (Hieter et al.); The variable regions were re-amplified with primers VH1BACK/VH1FOR and VK8BACK/VK3FOR, so their terminal residues may be dictated by the primers; also called chimeric control; chimeric antibody
Question: Does B1 bind (carcinoembryonic antigen [1])?
Answer: Result: binds

B2: murine anti-CEA IgG1 monoclonal antibody MN-14 (antibody, V domains shown)
VH: EVKLLESGGGLVQSGGSLKLSCAASGFDFTTYWMSWVRQAPGKGLEWIGEIHPDSSTINYAPSLKDKFIVSRDNAKNTLYLQMSKVRSEDTALYYCASLYFGFPWFAYWGQGTPVTVSA
VL: EIQLTQSHKMMSTSVGDRVSITCKASQDVGTSVAWYQQRPGQSPKLLIYWTSTRHTGVPDRFTGSVSGTDFTLTITNVQSEDLADYFCQQYSLYRSFGGGTKLEIK
notes: Murine kappa IgG1; also called mMN-14; murine control
Question: Does B2 bind (carcinoembryonic antigen [2])?
Answer: Result: binds
